Measured values from article PMC3212534, “Structural-Functional Characterization and Physiological Significance of Ferredoxin-NADP^+ Reductase from Xanthomonas axonopodis pv. citri” (PLoS ONE, 2011).

Tests used:
pea-FNR = target: T1, pea-FNR (Lathyrus oleraceus, UniProt P10933); test: UV-visible difference spectroscopy; assay type: binding; conditions: 0.3 mM NADP+; Kd in Table 1 is quoted from reference 49
T1 construct: gene PETH; plastidic FNR; preparation not described here
T1 sequence (P10933 53-360): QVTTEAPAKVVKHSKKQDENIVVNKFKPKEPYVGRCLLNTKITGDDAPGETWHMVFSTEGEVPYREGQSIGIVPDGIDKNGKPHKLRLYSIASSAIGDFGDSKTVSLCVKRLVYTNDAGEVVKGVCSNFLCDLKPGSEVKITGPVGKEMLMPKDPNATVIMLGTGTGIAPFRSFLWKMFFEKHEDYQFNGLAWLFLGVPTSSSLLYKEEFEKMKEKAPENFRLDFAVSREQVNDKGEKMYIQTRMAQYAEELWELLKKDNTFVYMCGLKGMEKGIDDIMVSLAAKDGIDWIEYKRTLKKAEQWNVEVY

Xac-FNR = target: T2, Xac-FNR (Xanthomonas citri, UniProt A0AAI7ZED9); test: difference absorption spectroscopy titration; assay type: binding; conditions: read-out: NADPH / K d
T2 construct: gene fpr; entire coding region in pET28a, N-terminal His6 tag cut with thrombin; expressed in E. coli BL21(DE3)pLysS; FAD-containing subclass I bacterial FNR
T2 sequence (A0AAI7ZED9 entry or part of it): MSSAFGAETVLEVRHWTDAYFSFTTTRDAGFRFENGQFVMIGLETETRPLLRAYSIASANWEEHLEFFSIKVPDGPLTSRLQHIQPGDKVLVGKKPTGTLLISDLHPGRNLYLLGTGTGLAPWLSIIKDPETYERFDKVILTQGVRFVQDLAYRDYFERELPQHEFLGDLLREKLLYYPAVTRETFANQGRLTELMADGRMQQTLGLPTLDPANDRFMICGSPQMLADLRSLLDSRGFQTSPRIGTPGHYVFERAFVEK
Source text: difference absorption spectroscopy titration on Xac-FNR

Ec-FNR = target: T3, Ec-FNR (Escherichia coli, UniProt P28861); test: UV-visible difference spectroscopy; assay type: binding; conditions: 0.3 mM NADP+; Kd in Table 1 is quoted from reference 49
T3 construct: gene fpr; subclass II bacterial FNR; preparation not described here
T3 sequence (P28861 2-248): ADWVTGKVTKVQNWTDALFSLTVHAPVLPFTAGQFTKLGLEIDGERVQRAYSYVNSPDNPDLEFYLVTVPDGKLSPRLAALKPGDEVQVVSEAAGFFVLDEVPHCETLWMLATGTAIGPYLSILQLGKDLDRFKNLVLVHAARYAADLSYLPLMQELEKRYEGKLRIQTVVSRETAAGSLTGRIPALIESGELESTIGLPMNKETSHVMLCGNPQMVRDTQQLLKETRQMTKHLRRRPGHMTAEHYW

[1] = test system: NC(=O)C1=CN([C@@H]2O[C@H](COP(=O)(O)OP(=O)(O)OC[C@H]3O[C@@H](n4cnc5c(N)ncnc54)[C@H](OP(=O)(O)O)[C@@H]3O)[C@@H](O)[C@H]2O)C=CC1; test: purified protein; conditions: potassium ferricyanide as acceptor, 50 mM Tris-HCl pH 8.0, 30 °C
[2] = test system: NC(=O)C1=CN([C@@H]2O[C@H](COP(=O)(O)OP(=O)(O)OC[C@H]3O[C@@H](n4cnc5c(N)ncnc54)[C@H](O)[C@@H]3O)[C@@H](O)[C@H]2O)C=CC1; test: purified protein; conditions: 1 mM potassium ferricyanide as acceptor, 50 mM Tris-HCl pH 8.0, 30 °C

Compound | UV-visible difference spectroscopy (pea-FNR) | Kd (Xac-FNR) [µM] | UV-visible difference spectroscopy (Ec-FNR) | Km [1] [µM] | kcat [1] [s⁻¹] | kcat/Km [1] [M⁻¹ s⁻¹] | Km [2] [µM] | kcat [2] [s⁻¹] | kcat/Km [2] [M⁻¹ s⁻¹]
NC(=O)c1ccc[n+]([C@@H]2O[C@H](COP(=O)(O)OP(=O)(O)OC[C@H]3O[C@@H](n4cnc5c(N)ncnc54)[C@H](OP(=O)(O)O)[C@@H]3O)[C@@H](O)[C@H]2O)c1 [NADP^+] | Differential UV-visible spectra elicited by the interaction between the enzymes and NADP^+ | 9.7 ± 0.4 | Differential UV-visible spectra elicited by the interaction between the enzymes and NADP^+ |  |  |  |  |  | 
Xac-FNR (Xanthomonas citri subsp. citri 306) |  |  |  | 10.8 ± 0.5 | 122 | 1.13e+07 | 3300 ± 1400 | 3.2 ± 1.3 | 1000
